Target: T1, XRCC4 (residues 1-336) (human, UniProt Q13426 1-336)
T1 construct: XRCC4, human, residues 1-336; The copies value of 2 rests on the introduction's words (one XRCC4 homodimer and one Lig4 monomer in the active complex), not on a measurement made here; also called X4
Test: differential scanning fluorimetry; Lig4 C-ter and XRCC4 equimolar at 5 uM in 20 mM HEPES pH 7.5, 100 mM KCl, 2 mM EDTA, 1 mM DTT, 66 mM NDSB-195, 10% glycerol, 10X SYPRO Orange; heated from 20 to 89 °C
Details: both partners purified

T1 sequence (Q13426 whole entry, the tested form may be a part): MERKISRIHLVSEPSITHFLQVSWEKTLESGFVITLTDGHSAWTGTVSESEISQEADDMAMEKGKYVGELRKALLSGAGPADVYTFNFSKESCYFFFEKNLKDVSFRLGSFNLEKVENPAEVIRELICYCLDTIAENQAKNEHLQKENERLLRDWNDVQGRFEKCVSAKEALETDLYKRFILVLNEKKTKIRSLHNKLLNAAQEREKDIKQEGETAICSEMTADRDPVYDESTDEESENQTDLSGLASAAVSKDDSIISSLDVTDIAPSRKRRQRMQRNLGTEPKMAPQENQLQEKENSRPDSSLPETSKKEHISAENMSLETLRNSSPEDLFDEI

binding result: binds
B1: WT Lig4 C-ter domain (654-911) (domain or fragment, human, UniProt P49917 654-911, looked up)
chain: KISNIFEDVEFCVMSGTDSQPKPDLENRIAEFGGYIVQNPGPDTYCVIAGSENIRVKNIILSNKHDVVKPAWLLECFKTKSFVPWQPRFMIHMCPSTKEHFAREYDCYGDSYFIDTDLNQLKEVFSGIKNSNEQTPEEMASLIADLEYRYSWDCSPLSMFRRHTVYLDSYAVINDLSTKNEGTRLAIKALELRFHGAKVVSCLAEGVSHVIIGEDHSRVADFKAFRRTFKRKFKILKESWVTDSIDKCELQEENQYLI
notes: DNA ligase IV (Lig4), human, C-terminal fragment with the two BRCT domains and the clamp domain, residues 654-911; also called Lig4 C-ter fragment; C-ter Lig4 protein; source: Escherichia coli BL21 (DE3), purified (HisTrap HP, HiTrap Q HP)

From publication PMC4786802, “Structure-Based Virtual Ligand Screening on the XRCC4/DNA Ligase IV Interface” (Scientific Reports, 2016)
